Assay results from IntAct's records for PubMed 31515488.

B1: Ceramide transfer protein (Homo sapiens), Q9Y5P4 (parent)
chain: MSDNQSWNSSGSEEDPETESGPPVERCGVLSKWTNYIHGWQDRWVVLKNNALSYYKSEDETEYGCRGSICLSKAVITPHDFDECRFDISVNDSVWYLRAQDPDHRQQWIDAIEQHKTESGYGSESSLRRHGSMVSLVSGASGYSATSTSSFKKGHSLREKLAEMETFRDILCRQVDTLQKYFDACADAVSKDELQRDKVVEDDEDDFPTTRSDGDFLHSTNGNKEKLFPHVTPKGINGIDFKGEAITFKATTAGILATLSHCIELMVKREDSWQKRLDKETEKKRRTEEAYKNAMTELKKKSHFGGPDYEEGPNSLINEEEFFDAVEAALDRQDKIEEQSQSEKVRLHWPTSLPSGDAFSSVGTHRFVQKPYSRSSSMSSIDLVSASDDVHRFSSQVEEMVQNHMTYSLQDVGGDANWQLVVEEGEMKVYRREVEENGIVLDPLKATHAVKGVTGHEVCNYFWNVDVRNDWETTIENFHVVETLADNAIIIYQTHKRVWPASQRDVLYLSVIRKIPALTENDPETWIVCNFSVDHDSAPLNNRCVRAKINVAMICQTLVSPPEGNQEISRDNILCKITYVANVNPGGWAPASVLRAVAKREYPKFLKRFTSYVQEKTAGKPILF
B2: Protein BANP (Homo sapiens), Q8N9N5-2 (parent)
chain: MMSEHDLADVVQIAVEDLSPDHPVVLENHVVTDEDEPALKRQRLEINCQDPSIKSFLYSINQTICLRLDSIEAKLQALEATCKSLEEKLDLVTNKQHSPIQVPMVAGSPLGATQTCNKVRCAVPGRRQNTIVVKVPGQEDSHHEDGESGSEASDSVSSCGQAGSQSIGSNVTLITLNSEEDYPNGTWLGDENNPEMRVRCAIIPSDMLHISTNCRTAEKMALTLLDYLFHREVQAVSNLSGQGKHGKKQLDPLTIYGIRCHLFYKFGITESDWYRIKQSIDSKCRTAWRRKQRGQSLAVKSFSRRTPNSSSYCPSEPMMSTPPPASELPQPQPQPQALHYALANAQQVQIHQIGEDGQVQVIPQGHLHIAQVPQGEQVQITQDSEGNLQIHHVGQDGQVLQGAQLIAVASSDPAAAGVDGSPLQGSDIQVQYVQLAPVSDHTAGAQTAEALQPTLQPEMQLEHGAIQIQ
partner: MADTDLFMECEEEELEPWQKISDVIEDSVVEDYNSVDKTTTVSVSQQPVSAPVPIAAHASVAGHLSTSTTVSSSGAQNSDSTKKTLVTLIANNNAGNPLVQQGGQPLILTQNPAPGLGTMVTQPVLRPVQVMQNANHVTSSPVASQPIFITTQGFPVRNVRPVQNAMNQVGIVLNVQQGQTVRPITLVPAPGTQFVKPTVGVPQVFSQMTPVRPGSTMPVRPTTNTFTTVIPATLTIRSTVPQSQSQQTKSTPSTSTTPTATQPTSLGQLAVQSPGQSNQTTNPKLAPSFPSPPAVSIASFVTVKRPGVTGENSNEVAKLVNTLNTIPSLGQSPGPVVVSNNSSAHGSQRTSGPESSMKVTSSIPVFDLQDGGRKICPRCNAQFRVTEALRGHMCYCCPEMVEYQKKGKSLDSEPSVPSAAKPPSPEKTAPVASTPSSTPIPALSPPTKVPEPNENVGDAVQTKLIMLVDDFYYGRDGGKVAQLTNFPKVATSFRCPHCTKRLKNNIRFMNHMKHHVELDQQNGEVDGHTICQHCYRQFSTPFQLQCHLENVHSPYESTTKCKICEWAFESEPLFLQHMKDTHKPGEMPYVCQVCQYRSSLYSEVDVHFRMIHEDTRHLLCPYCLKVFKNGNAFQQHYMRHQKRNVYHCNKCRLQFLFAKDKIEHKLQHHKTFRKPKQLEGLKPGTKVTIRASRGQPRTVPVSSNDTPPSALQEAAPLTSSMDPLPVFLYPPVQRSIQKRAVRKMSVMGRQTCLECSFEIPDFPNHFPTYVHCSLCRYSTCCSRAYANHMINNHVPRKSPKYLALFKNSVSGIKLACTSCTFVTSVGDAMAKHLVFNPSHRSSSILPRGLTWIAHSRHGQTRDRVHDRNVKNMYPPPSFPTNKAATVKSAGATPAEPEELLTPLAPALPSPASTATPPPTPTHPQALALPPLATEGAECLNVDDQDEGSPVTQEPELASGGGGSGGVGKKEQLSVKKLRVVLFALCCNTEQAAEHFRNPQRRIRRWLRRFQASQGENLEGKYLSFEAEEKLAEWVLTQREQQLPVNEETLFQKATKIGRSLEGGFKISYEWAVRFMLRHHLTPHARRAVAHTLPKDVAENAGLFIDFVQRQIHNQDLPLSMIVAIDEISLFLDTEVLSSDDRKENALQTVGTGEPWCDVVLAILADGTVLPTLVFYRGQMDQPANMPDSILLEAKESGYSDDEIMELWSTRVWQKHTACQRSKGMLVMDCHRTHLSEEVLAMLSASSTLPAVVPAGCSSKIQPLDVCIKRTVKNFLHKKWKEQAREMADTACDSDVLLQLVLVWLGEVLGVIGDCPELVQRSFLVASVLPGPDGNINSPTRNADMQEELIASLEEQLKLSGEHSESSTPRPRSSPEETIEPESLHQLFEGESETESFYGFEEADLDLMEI
B3: Keratin, type II cytoskeletal 79 (Homo sapiens), Q5XKE5 (parent)
chain: MRSSVSRQTYSTKGGFSSNSASGGSGSQARTSFSSVTVSRSSGSGGGAHCGPGTGGFGSRSLYNLGGHKSISVSVAGGALLGRALGGFGFGSRAFMGQGAGRQTFGPACPPGGIQEVTVNQSLLTPLHVEIDPEIQRVRTQEREQIKTLNNKFASFIDKVRFLEQQNKVLETKWALLQEQGQNLGVTRNNLEPLFEAYLGSMRSTLDRLQSERGRLDSELRNVQDLVEDFKNKYEDEINKHTAAENEFVVLKKDVDAAYMGRMDLHGKVGTLTQEIDFLQQLYEMELSQVQTHVSNTNVVLSMDNNRNLDLDSIIAEVKAQYELIAQRSRAEAEAWYQTKYEELQVTAGKHGDNLRDTKNEIAELTRTIQRLQGEADAAKKQCQQLQTAIAEAEQRGELALKDAQKKLGDLDVALHQAKEDLTRLLRDYQELMNVKLALDVEIATYRKLLESEESRMSGECPSAVSISVTGNSTTVCGGGAASFGGGISLGGSGGATKGGFSTNVGYSTVKGGPVSAGTSILRKTTTVKTSSQRY
partner: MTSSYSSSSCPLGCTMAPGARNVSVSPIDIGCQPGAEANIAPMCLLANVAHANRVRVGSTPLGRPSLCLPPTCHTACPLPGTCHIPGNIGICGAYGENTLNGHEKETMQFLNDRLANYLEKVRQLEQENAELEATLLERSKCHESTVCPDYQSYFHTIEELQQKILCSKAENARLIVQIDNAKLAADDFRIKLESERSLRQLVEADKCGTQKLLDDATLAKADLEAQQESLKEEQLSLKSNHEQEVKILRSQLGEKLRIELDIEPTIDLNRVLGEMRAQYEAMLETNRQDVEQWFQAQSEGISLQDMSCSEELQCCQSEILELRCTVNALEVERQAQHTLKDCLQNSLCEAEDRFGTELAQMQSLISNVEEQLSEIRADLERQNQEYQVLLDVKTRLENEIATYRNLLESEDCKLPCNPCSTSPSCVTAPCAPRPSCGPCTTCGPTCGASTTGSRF

Variants of: B1
Details: with rtn4_human RTN4, Q9NQC3
Sequence of rtn4_human RTN4, Q9NQC3 (Q9NQC3 whole entry): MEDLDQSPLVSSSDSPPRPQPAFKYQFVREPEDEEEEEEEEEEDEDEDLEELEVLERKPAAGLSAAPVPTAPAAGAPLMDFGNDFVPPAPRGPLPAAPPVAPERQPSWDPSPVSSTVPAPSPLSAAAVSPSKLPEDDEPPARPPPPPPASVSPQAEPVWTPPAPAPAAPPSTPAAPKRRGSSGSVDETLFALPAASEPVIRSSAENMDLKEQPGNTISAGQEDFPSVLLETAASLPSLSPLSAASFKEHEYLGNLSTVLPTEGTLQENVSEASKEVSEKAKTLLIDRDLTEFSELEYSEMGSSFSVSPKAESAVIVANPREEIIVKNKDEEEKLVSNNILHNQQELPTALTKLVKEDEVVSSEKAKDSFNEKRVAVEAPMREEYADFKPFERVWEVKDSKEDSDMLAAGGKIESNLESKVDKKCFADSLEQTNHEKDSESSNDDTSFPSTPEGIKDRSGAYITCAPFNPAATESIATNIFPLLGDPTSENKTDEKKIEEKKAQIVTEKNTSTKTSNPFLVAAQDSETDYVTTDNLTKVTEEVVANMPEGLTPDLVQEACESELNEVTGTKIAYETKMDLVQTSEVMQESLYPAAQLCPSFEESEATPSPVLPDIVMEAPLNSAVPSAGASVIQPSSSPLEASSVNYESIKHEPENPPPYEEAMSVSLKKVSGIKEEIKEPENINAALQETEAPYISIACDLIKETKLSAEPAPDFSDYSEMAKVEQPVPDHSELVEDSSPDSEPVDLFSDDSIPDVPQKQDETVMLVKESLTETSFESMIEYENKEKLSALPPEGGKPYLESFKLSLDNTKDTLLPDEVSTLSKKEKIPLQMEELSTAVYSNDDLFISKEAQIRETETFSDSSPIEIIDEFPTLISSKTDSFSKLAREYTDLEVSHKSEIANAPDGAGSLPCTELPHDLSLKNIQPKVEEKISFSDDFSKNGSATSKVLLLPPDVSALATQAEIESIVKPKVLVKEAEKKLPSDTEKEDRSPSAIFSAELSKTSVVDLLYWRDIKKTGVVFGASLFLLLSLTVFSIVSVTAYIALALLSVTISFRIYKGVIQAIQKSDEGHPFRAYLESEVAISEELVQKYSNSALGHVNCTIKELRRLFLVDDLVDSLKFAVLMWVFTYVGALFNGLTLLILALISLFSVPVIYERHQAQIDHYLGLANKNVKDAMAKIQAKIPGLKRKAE

effect of a mutation on the interaction | Variant
with no effect | R128H

Variants of: B1
Details: with rtn3_human RTN3, O95197
Sequence of rtn3_human RTN3, O95197 (O95197 whole entry): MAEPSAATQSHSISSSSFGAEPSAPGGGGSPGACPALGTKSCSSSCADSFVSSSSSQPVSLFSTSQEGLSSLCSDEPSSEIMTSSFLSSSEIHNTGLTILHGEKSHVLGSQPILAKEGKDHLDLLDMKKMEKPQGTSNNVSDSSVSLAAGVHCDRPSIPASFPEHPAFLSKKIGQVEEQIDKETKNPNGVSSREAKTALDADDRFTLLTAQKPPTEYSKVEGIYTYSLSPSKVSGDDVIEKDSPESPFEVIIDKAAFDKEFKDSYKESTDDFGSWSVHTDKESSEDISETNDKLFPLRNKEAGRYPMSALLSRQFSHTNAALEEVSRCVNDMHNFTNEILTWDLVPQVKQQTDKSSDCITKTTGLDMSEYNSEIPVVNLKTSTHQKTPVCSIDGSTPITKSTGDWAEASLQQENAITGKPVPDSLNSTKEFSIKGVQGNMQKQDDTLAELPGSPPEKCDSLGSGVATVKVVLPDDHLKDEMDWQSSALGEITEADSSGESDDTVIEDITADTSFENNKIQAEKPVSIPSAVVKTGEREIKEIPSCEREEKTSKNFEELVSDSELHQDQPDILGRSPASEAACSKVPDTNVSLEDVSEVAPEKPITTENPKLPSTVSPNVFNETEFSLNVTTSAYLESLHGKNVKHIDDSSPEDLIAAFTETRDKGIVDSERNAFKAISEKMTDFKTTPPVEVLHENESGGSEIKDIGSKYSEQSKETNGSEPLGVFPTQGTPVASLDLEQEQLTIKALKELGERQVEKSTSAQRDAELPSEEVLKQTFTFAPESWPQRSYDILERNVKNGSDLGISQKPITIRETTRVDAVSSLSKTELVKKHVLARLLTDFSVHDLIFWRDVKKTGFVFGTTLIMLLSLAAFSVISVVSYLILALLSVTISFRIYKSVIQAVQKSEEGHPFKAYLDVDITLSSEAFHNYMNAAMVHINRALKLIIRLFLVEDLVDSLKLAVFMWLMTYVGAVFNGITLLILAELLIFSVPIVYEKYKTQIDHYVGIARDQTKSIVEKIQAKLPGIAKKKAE

effect of a mutation on the interaction | Variant
with no effect | R128H

Variants of: B1
Details: with ar6p1_human ARL6IP1, Q15041
Sequence of ar6p1_human ARL6IP1, Q15041 (Q15041 whole entry): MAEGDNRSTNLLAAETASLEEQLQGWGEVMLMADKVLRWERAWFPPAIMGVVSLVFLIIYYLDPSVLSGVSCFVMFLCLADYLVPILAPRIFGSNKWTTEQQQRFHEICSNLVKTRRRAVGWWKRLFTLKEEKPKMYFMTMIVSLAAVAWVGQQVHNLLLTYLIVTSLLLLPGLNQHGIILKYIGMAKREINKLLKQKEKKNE

effect of a mutation on the interaction | Variant
with no effect | R128H

Variants of: B2
Details: with pogz_human POGZ

effect of a mutation on the interaction | Variant
with no effect | MMSEHDLADVVQIAVEDLSPDHPVVLENHVVTDEDEPALKRQRLEINCQDPSIKSFLYSINQTICLRLDSIEAKLQALEATCKSLEEKLDLVTNKQHSPIQVPMVAGSPLGATQTCNKVRCAVPGRRQNTIVVKVPGQEDSHHEDGESGSEASDSVSSCGQVGSQSIGSNVTLITLNSEEDYPNGTWLGDENNPEMRVRCAIIPSDMLHISTNCRTAEKMALTLLDYLFHREVQAVSNLSGQGKHGKKQLDPLTIYGIRCHLFYKFGITESDWYRIKQSIDSKCRTAWRRKQRGQSLAVKSFSRRTPNSSSYCPSEPMMSTPPPASELPQPQPQPQALHYALANAQQVQIHQIGEDGQVQVIPQGHLHIAQVPQGEQVQITQDSEGNLQIHHVGQDGQVLQGAQLIAVASSDPAAAGVDGSPLQGSDIQVQYVQLAPVSDHTAGAQTAEALQPTLQPEMQLEHGAIQIQ [A162V]

Variants of: B3
Details: with krt38_human KRT38, O76015

Variant | effect of a mutation on the interaction
MRSSVSRQTYSTKGGFSSNSASGGSGSQACTSFSSVTVSRSSGSGGGAHCGPGTGGFGSRSLYNLGGHKSISVSVAGGALLGRALGGFGFGSRAFMGQGAGRQTFGPACPPGGIQEVTVNQSLLTPLHVEIDPEIQRVRTQEREQIKTLNNKFASFIDKVRFLEQQNKVLETKWALLQEQGQNLGVTRNNLEPLFEAYLGSMRSTLDRLQSERGRLDSELRNVQDLVEDFKNKYEDEINKHTAAENEFVVLKKDVDAAYMGRMDLHGKVGTLTQEIDFLQQLYEMELSQVQTHVSNTNVVLSMDNNRNLDLDSIIAEVKAQYELIAQRSRAEAEAWYQTKYEELQVTAGKHGDNLRDTKNEIAELTRTIQRLQGEADAAKKQCQQLQTAIAEAEQRGELALKDAQKKLGDLDVALHQAKEDLTRLLRDYQELMNVKLALDVEIATYRKLLESEESRMSGECPSAVSISVTGNSTTVCGGGAASFGGGISLGGSGGATKGGFSTNVGYSTVKGGPVSAGTSILRKTTTVKTSSQRY [R30C] | with no effect
MRSSVSRQTYSTKGGFSSNSASGGSGSQARTSFSSVTVSRSSGSGGGAHCGPGTGGFGSRSLYNLGGHKSISVSVAGGALLGRALEGFGFGSRAFMGQGAGRQTFGPACPPGGIQEVTVNQSLLTPLHVEIDPEIQRVRTQEREQIKTLNNKFASFIDKVRFLEQQNKVLETKWALLQEQGQNLGVTRNNLEPLFEAYLGSMRSTLDRLQSERGRLDSELRNVQDLVEDFKNKYEDEINKHTAAENEFVVLKKDVDAAYMGRMDLHGKVGTLTQEIDFLQQLYEMELSQVQTHVSNTNVVLSMDNNRNLDLDSIIAEVKAQYELIAQRSRAEAEAWYQTKYEELQVTAGKHGDNLRDTKNEIAELTRTIQRLQGEADAAKKQCQQLQTAIAEAEQRGELALKDAQKKLGDLDVALHQAKEDLTRLLRDYQELMNVKLALDVEIATYRKLLESEESRMSGECPSAVSISVTGNSTTVCGGGAASFGGGISLGGSGGATKGGFSTNVGYSTVKGGPVSAGTSILRKTTTVKTSSQRY [G86E] | with no effect

Second part, the variant after the results:

effect of a mutation on the interaction | Variant
disrupting interaction strength | MRSSVSRQTYSTKGGFSSNSASGGSGSQARTSFSSVTVSRSSGSGGGAHCGPGTGGFGSRSLYNLGGHKSISVSVAGGALLGRALGGFGFGSRAFMGQGAGRQTFGPACPPGGIQEVTVNQSLLTPLHVEIDPEIQRVRTQEREQIKTLNNKFASFIDKVRFLEQQNKVLETKWALLQEQGQNLGVTRNNLEPLFEAYLGSMRSTLDRLQSEWGRLDSELRNVQDLVEDFKNKYEDEINKHTAAENEFVVLKKDVDAAYMGRMDLHGKVGTLTQEIDFLQQLYEMELSQVQTHVSNTNVVLSMDNNRNLDLDSIIAEVKAQYELIAQRSRAEAEAWYQTKYEELQVTAGKHGDNLRDTKNEIAELTRTIQRLQGEADAAKKQCQQLQTAIAEAEQRGELALKDAQKKLGDLDVALHQAKEDLTRLLRDYQELMNVKLALDVEIATYRKLLESEESRMSGECPSAVSISVTGNSTTVCGGGAASFGGGISLGGSGGATKGGFSTNVGYSTVKGGPVSAGTSILRKTTTVKTSSQRY [R213W]
with no effect | MRSSVSRQTYSTKGGFSSNSASGGSGSQARTSFSSVTVSRSSGSGGGAHCGPGTGGFGSRSLYNLGGHKSISVSVAGGALLGRALGGFGFGSRAFMGQGAGRQTFGPACPPGGIQEVTVNQSLLTPLHVEIDPEIQRVRTQEREQIKTLNNKFASFIDKVQFLEQQNKVLETKWALLQEQGQNLGVTRNNLEPLFEAYLGSMRSTLDRLQSERGRLDSELRNVQDLVEDFKNKYEDEINKHTAAENEFVVLKKDVDAAYMGRMDLHGKVGTLTQEIDFLQQLYEMELSQVQTHVSNTNVVLSMDNNRNLDLDSIIAEVKAQYELIAQRSRAEAEAWYQTKYEELQVTAGKHGDNLRDTKNEIAELTRTIQRLQGEADAAKKQCQQLQTAIAEAEQRGELALKDAQKKLGDLDVALHQAKEDLTRLLRDYQELMNVKLALDVEIATYRKLLESEESRMSGECPSAVSISVTGNSTTVCGGGAASFGGGISLGGSGGATKGGFSTNVGYSTVKGGPVSAGTSILRKTTTVKTSSQRY [R161Q]
